Earlier results on one molecule are cited in patent publication US12714740B2, “Compositions comprising a tweak ligand and methods of using same” (Children's Hospital Medical Center, priority 2019, dated 2026).

For the data set, the target named is T1, Fn14 (Homo sapiens, UniProt Q9NP84).
T1 sequence (Q9NP84 28-129): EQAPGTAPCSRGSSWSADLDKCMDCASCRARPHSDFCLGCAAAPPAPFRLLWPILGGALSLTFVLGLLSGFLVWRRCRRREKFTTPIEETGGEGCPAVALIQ
The note with it: natural ligand binding to Fn14; high affinity; read-out: interaction affinity constant (Kd).

B1: TWEAK: natural ligand for Fn14; 14 kDa protein, TNF superfamily member 12 (protein, UniProt O43508 94-249, looked up)
Tumor necrosis factor ligand …: SAPKGRKTRARRAIAAHYEVHPRPGQDGAQAGVDGTVSGWEEARINSSSPLRYNRQIGEFIVTRAGLYYLYCQVHFDEGKAVYLKLDLLVDGVLALRCLEEFSATAASSLGPQLRLCQVSGLLALRPGSSLRIRTLPWAHLKAAPFLTYFGLFQVH
In the case of B1, the Kd was 0.8 to 2.4 nM.
